Experimental data taken from the supplement of paper PMC10567573.

B1: PPFIA4 (parent)
chain: VMTLPSDLRKHRRKLLSPVSREEN

Variants of: B1
Assay: protein stability index of a GFP-peptide fusion (GPS, HEK-293T) (PSI 1-6); higher = more stable
Conditions: c terminus: a fixed tail appended
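Further: lentivirally expressed fusions sorted by FACS into six bins by GFP to DsRed ratio, PSI derived from sequencing read proportions per bin multiplied by bin number.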

For RMTLPSDLRKHRRKLLSPVSREEN [V1R], which protein stability index is on record?
Its protein stability index is 4.59.

Which protein stability index does the source give for VMTLPSDLRAHRRKLLSPVSREEN [K10A] here?
The protein stability index was 4.32.

With VMTLPSDLRKERRKLLSPVSREEN [H11E] as the variant, how does the protein stability index read?
The protein stability index was 4.37.

With VMTLPSDLRKHRRKLLSPVSRYEN [E22Y] as the variant, how does the protein stability index read?
The protein stability index was 2.93.

With VMTLPSDLRKHARKLLSPVSREEN [R12A] as the variant, how does the protein stability index read?
The protein stability index was 3.66.

With VMTLPSDWRKHRRKLLSPVSREEN [L8W] as the variant, how does the protein stability index read?
Its protein stability index is 3.22.

For VMTLPSDLRKHRRKSLSPVSREEN [L15S], which protein stability index is on record?
The protein stability index was 4.94.

With VMTLPSDLRKHRGKLLSPVSREEN [R13G] as the variant, how does the protein stability index read?
The protein stability index was 3.91.

With VMTLPSDLRKHRRKLLSIVSREEN [P18I] as the variant, how does the protein stability index read?
The protein stability index was 3.33.

For VMTLPSDLAKHRRKLLSPVSREEN [R9A], which protein stability index is on record?
The protein stability index was 4.01.

With VMTLPSDARKHRRKLLSPVSREEN [L8A] as the variant, how does the protein stability index read?
The protein stability index was 3.43.

With VMTLPSDLRKVRRKLLSPVSREEN [H11V] as the variant, how does the protein stability index read?
Its protein stability index is 3.35.

Which protein stability index does the source give for VMWLPSDLRKHRRKLLSPVSREEN [T3W] here?
Its protein stability index is 2.26.

Which protein stability index does the source give for VMTLPSDYRKHRRKLLSPVSREEN [L8Y] here?
The protein stability index was 3.24.

With VMTLPSDLRKHRRKLLSPVWREEN [S20W] as the variant, how does the protein stability index read?
The protein stability index was 2.63.

With VMTLPSDLRKHRRKLQSPVSREEN [L16Q] as the variant, how does the protein stability index read?
Its protein stability index is 3.75.

With VMTLPSDLRKHRRKLLSMVSREEN [P18M] as the variant, how does the protein stability index read?
The protein stability index was 3.83.

Which protein stability index does the source give for PMTLPSDLRKHRRKLLSPVSREEN [V1P] here?
The protein stability index was 4.27.

For VMTLPSVLRKHRRKLLSPVSREEN [D7V], which protein stability index is on record?
Its protein stability index is 2.84.

Which protein stability index does the source give for VMTLPCDLRKHRRKLLSPVSREEN [S6C] here?
Its protein stability index is 3.6.

For VATLPSDLRKHRRKLLSPVSREEN [M2A], which protein stability index is on record?
Its protein stability index is 4.31.

With VMTLPSDLRKHRRKLLSPVSREIN [E23I] as the variant, how does the protein stability index read?
The protein stability index was 3.15.

For VMTLPSDLRKHRRKLLSPVRREEN [S20R], which protein stability index is on record?
The protein stability index was 3.84.

Which protein stability index does the source give for VMTLFSDLRKHRRKLLSPVSREEN [P5F] here?
The protein stability index was 2.1.

For VMTLPGDLRKHRRKLLSPVSREEN [S6G], which protein stability index is on record?
Its protein stability index is 3.65.

With VMTLPSDLRFHRRKLLSPVSREEN [K10F] as the variant, how does the protein stability index read?
The protein stability index was 2.75.

With VMTLPSDLRLHRRKLLSPVSREEN [K10L] as the variant, how does the protein stability index read?
The protein stability index was 3.43.

Which protein stability index does the source give for VMTLPSDLRKHRRKLLKPVSREEN [S17K] here?
The protein stability index was 3.66.

For VMTVPSDLRKHRRKLLSPVSREEN [L4V], which protein stability index is on record?
The protein stability index was 3.77.

For VMTLYSDLRKHRRKLLSPVSREEN [P5Y], which protein stability index is on record?
Its protein stability index is 2.7.

For VMTLPSDLRKHRRKLLSPFSREEN [V19F], which protein stability index is on record?
The protein stability index was 2.85.

For VMILPSDLRKHRRKLLSPVSREEN [T3I], which protein stability index is on record?
Its protein stability index is 2.65.

Which protein stability index does the source give for VMTLPSDLRKHRRKLLPPVSREEN [S17P] here?
Its protein stability index is 4.17.

Which protein stability index does the source give for EMTLPSDLRKHRRKLLSPVSREEN [V1E] here?
The protein stability index was 4.2.

For VMTLPSDLRKHRRKLLSQVSREEN [P18Q], which protein stability index is on record?
The protein stability index was 2.92.

With VMCLPSDLRKHRRKLLSPVSREEN [T3C] as the variant, how does the protein stability index read?
The protein stability index was 3.56.

Which protein stability index does the source give for VMTLPSDLREHRRKLLSPVSREEN [K10E] here?
Its protein stability index is 3.48.

For VMTLPSDLRKHHRKLLSPVSREEN [R12H], which protein stability index is on record?
Its protein stability index is 3.92.

With VNTLPSDLRKHRRKLLSPVSREEN [M2N] as the variant, how does the protein stability index read?
Its protein stability index is 3.84.

Which protein stability index does the source give for VMTLPFDLRKHRRKLLSPVSREEN [S6F] here?
The protein stability index was 3.57.

Which protein stability index does the source give for VMTLPSDLRKHRRKLLSPVSREED [N24D] here?
The protein stability index was 4.33.

Which protein stability index does the source give for VMTLPSDLRKHRRHLLSPVSREEN [K14H] here?
The protein stability index was 3.81.

For VMTLPSDLRKHRDKLLSPVSREEN [R13D], which protein stability index is on record?
The protein stability index was 4.09.

With VMTLPSDLRKHRRKLLSPNSREEN [V19N] as the variant, how does the protein stability index read?
The protein stability index was 3.91.

Which protein stability index does the source give for VMTLPSDLRKHRAKLLSPVSREEN [R13A] here?
Its protein stability index is 4.11.

For VMTLPSDLRKHRRMLLSPVSREEN [K14M], which protein stability index is on record?
Its protein stability index is 3.65.

For VMFLPSDLRKHRRKLLSPVSREEN [T3F], which protein stability index is on record?
The protein stability index was 1.74.

With VMTLPSDLRKHRRKLLSPVSREYN [E23Y] as the variant, how does the protein stability index read?
The protein stability index was 2.96.

With VMTLPSDLRKHRRKLLSPVSREER [N24R] as the variant, how does the protein stability index read?
The protein stability index was 3.73.

With VMTLPSDLRKHRRKLLSPVSREEY [N24Y] as the variant, how does the protein stability index read?
The protein stability index was 3.02.

With VMTLPSDLRKHRRKLLSPVSREEA [N24A] as the variant, how does the protein stability index read?
The protein stability index was 4.02.

For VMTLPSDLRKTRRKLLSPVSREEN [H11T], which protein stability index is on record?
The protein stability index was 3.79.

For VMTLPSDLRKHRRKLLSFVSREEN [P18F], which protein stability index is on record?
The protein stability index was 2.83.

Which protein stability index does the source give for VMTLPSDLRKHRRKLLSPVSREEK [N24K] here?
The protein stability index was 4.04.

For VMTLPSDLRKHDRKLLSPVSREEN [R12D], which protein stability index is on record?
Its protein stability index is 4.68.

Which protein stability index does the source give for VMTLPSDLRYHRRKLLSPVSREEN [K10Y] here?
Its protein stability index is 2.76.

For VMTLPSDLRKHRRKLLSPVSREEI [N24I], which protein stability index is on record?
The protein stability index was 3.34.

For VMTLPSDLRKARRKLLSPVSREEN [H11A], which protein stability index is on record?
The protein stability index was 3.42.

With VMTLPSDLRKHRRKLLSPVSREAN [E23A] as the variant, how does the protein stability index read?
Its protein stability index is 3.04.

Which protein stability index does the source give for VMTLPSDLRKHRRKLLSPISREEN [V19I] here?
Its protein stability index is 3.8.

With VMTLPSDLHKHRRKLLSPVSREEN [R9H] as the variant, how does the protein stability index read?
The protein stability index was 3.9.

Which protein stability index does the source give for VMTLPSDLRKHRRKLLSPVSAEEN [R21A] here?
The protein stability index was 4.18.

With VMTLPSDLRKHRLKLLSPVSREEN [R13L] as the variant, how does the protein stability index read?
The protein stability index was 4.05.

For VMTLPSDTRKHRRKLLSPVSREEN [L8T], which protein stability index is on record?
The protein stability index was 4.24.

With VMTLPSDLRKHRRLLLSPVSREEN [K14L] as the variant, how does the protein stability index read?
The protein stability index was 3.48.

With VMTLPSDLRKHRRKLLSPWSREEN [V19W] as the variant, how does the protein stability index read?
The protein stability index was 2.52.

For VMMLPSDLRKHRRKLLSPVSREEN [T3M], which protein stability index is on record?
Its protein stability index is 2.31.

For VMTLPSDLRKHRRKLLSPVSRVEN [E22V], which protein stability index is on record?
Its protein stability index is 3.86.

For VMTLPSDLRKHRRKLFSPVSREEN [L16F], which protein stability index is on record?
Its protein stability index is 3.29.

With VMTLPSDLRGHRRKLLSPVSREEN [K10G] as the variant, how does the protein stability index read?
The protein stability index was 3.87.

With KMTLPSDLRKHRRKLLSPVSREEN [V1K] as the variant, how does the protein stability index read?
The protein stability index was 3.81.

With VMTLPSDLRKHRRKLLSPCSREEN [V19C] as the variant, how does the protein stability index read?
Its protein stability index is 3.17.

Which protein stability index does the source give for VMTLPSDLRKHRRKLLSPVSMEEN [R21M] here?
Its protein stability index is 4.09.

Which protein stability index does the source give for VMTLPSDLRKHRRKLYSPVSREEN [L16Y] here?
The protein stability index was 3.85.

With VMTLPSDLRKLRRKLLSPVSREEN [H11L] as the variant, how does the protein stability index read?
Its protein stability index is 3.14.

With VITLPSDLRKHRRKLLSPVSREEN [M2I] as the variant, how does the protein stability index read?
Its protein stability index is 3.12.

For VLTLPSDLRKHRRKLLSPVSREEN [M2L], which protein stability index is on record?
The protein stability index was 3.48.

Which protein stability index does the source give for VMTLPSDLRKHRSKLLSPVSREEN [R13S] here?
Its protein stability index is 4.36.

For VMTLPSDLRKHREKLLSPVSREEN [R13E], which protein stability index is on record?
The protein stability index was 4.59.

With VMTLPSDLRKHRRKLLSPVSREQN [E23Q] as the variant, how does the protein stability index read?
Its protein stability index is 2.96.

With VMTLPSDLRKHRRKLLSKVSREEN [P18K] as the variant, how does the protein stability index read?
Its protein stability index is 4.16.

With VMTLPSDLRKHRRKLLSPVSRFEN [E22F] as the variant, how does the protein stability index read?
The protein stability index was 2.44.

Which protein stability index does the source give for VMKLPSDLRKHRRKLLSPVSREEN [T3K] here?
Its protein stability index is 2.66.

With VMTLPSDLRKHRRTLLSPVSREEN [K14T] as the variant, how does the protein stability index read?
The protein stability index was 4.01.

For VMDLPSDLRKHRRKLLSPVSREEN [T3D], which protein stability index is on record?
The protein stability index was 4.12.

Which protein stability index does the source give for VMTLPSDLRKHRRKLLSPVSRSEN [E22S] here?
Its protein stability index is 3.68.

With VMTNPSDLRKHRRKLLSPVSREEN [L4N] as the variant, how does the protein stability index read?
Its protein stability index is 4.23.

For VMTLPSDLRKKRRKLLSPVSREEN [H11K], which protein stability index is on record?
The protein stability index was 3.44.

With VMTWPSDLRKHRRKLLSPVSREEN [L4W] as the variant, how does the protein stability index read?
Its protein stability index is 4.09.

Which protein stability index does the source give for VMTLPSDLRKHRRNLLSPVSREEN [K14N] here?
Its protein stability index is 3.9.

Which protein stability index does the source give for VMTLPSDLRKHRRKLLSLVSREEN [P18L] here?
The protein stability index was 3.44.

With VVTLPSDLRKHRRKLLSPVSREEN [M2V] as the variant, how does the protein stability index read?
Its protein stability index is 3.46.

Which protein stability index does the source give for VMTLPSDLLKHRRKLLSPVSREEN [R9L] here?
The protein stability index was 3.59.

Which protein stability index does the source give for VMTLPSDLRKHRRKLLSPMSREEN [V19M] here?
Its protein stability index is 2.98.
